The values below come from PMC4742754, “Biochemical and Structural Characterization of the Interaction between the Siderocalin NGAL/LCN2 (Neutrophil Gelatinase-associated Lipocalin/Lipocalin 2) and the N-terminal Domain of Its Endocytic Receptor SLC22A17*” (The Journal of Biological Chemistry, 2015).

Assay [1] concerns the target N-terminal domain of the human lipocalin 2 receptor (hLCN2-R-NTD), wild type (human) (UniProt Q8WUG5). In words: ITC; apoNGAL (500 μM) in the syringe, hLCN2-R-NTD form (50 μM) in the cell; 25 °C, 20 mM Tris, pH 7.4, 50 mM NaCl; single binding site fit.
The target of assay [2] is hLCN2-R-NTD double mutant (hLCN2-R-NTD-DM), Cys-15–Cys-94 mutated out (human) (UniProt Q8WUG5). Described as above.
For assay [3], the target named is hLCN2-R-NTD quadruple mutant (hLCN2-R-NTD-QM) (human) (UniProt Q8WUG5). Described as above.
The target is the same in assay [4]. In words: NMR 15N CPMG relaxation dispersion; 15N-labelled hLCN2-R-NTD-QM with 0.05, 0.1 and 0.15 eq of unlabelled NGAL; 25 °C; two-state exchange fit, kex and populations as global parameters for the C-terminal residues.
Assay [5] concerns the target T1, human neutrophil gelatinase-associated lipocalin, hNGAL(C87S) (human, UniProt P80188 21-198, C87S).
T1 construct: human NGAL (LCN2), coding region amplified from pGEX-4T-hNGAL(C87S); The holo form is the same protein loaded with ferric enterobactin (a small molecule); it is told apart by the assay; the wild type was made only for the spin label; also called apoNGAL; LCN2; not shown: His6, N-terminal, cleaved
In words: MST; GFP-hLCN2-R-NTD fixed at 500 nM, apoNGAL varied 0–300 μM; 20 mM Tris/HCl, pH 7.4, 25 °C. The settings on record: both partners purified.

The target of assay [6] is T1, human neutrophil gelatinase-associated …. The assay is described as follows: MST; GFP-hLCN2-R-NTD fixed at 500 nM, NGAL/[FeIII(Ent)]3- (NGAL loaded with ferric enterobactin) varied 0–300 μM; 20 mM Tris/HCl, pH 7.4, 25 °C. The settings on record: both partners purified.

T1 sequence (P80188 21-198 C107S): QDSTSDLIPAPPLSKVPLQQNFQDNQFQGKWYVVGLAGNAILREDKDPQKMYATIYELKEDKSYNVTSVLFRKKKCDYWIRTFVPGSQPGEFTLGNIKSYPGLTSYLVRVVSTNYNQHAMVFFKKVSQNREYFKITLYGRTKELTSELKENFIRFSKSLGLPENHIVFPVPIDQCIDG

Regarding “human neutrophil gelatinase-associated lipocalin, hNGAL(C87S) (from UniProt P80188 21-198) (ligand)”, in assay [1], the dissociation constant Kd stood at 10 µM, the dH was -4.5 kcal/mol and the stoichiometry N came to 1. For the same molecule, in assay [2], the Kd turned out to be 9 µM and the dH was -2.1 kcal/mol. Besides, in assay [3], the dissociation constant Kd was 8 µM and the dH was -1.4 kcal/mol. In assay [4], the kex (0.1 eq of NGAL) worked out at 1300 s⁻¹, the kex (0.15 eq of NGAL) is 1200 s⁻¹ and the population of bound state (0.1 eq of NGAL) came to 1%.

B1: GFP-hLCN2-R-NTD (domain or fragment)
chain: MASDPIFTLAPPLHCHYGAFPPNASGWEQPPNASGVSVASAALAASAASRVATSTDPSCSGFAPPDFNHCLKDWDYNGLPVLTTNAIGQWDLVCDLGWQVILEQI
modifications: Limits: printed residues 1-105 are numbered on the 538-aa isoform (NM_020372); the 649-aa entry is taken to carry a 111-residue N-terminal extension (649-538), so offset +111 (Cys15/59/70/94 = …)
Turning to B1, the Kd in assay [5] was 6.6 µM; in assay [6], 20.7 µM.

One may read the Kd as a measure of binding affinity in units of concentration. The low end stands for higher affinity, the high end for lower affinity. A word on the stoichiometry N: it is a count of units in the complex or per binding partner.
